# Source: patent US9284543B2, “Neutral active soluble truncated PH20 polypeptides and uses thereof” (Halozyme, Inc., priority 2008, dated 2016)
# Key:
# [1] = system: CHO-S cells; experiment: PI-PLC treatment of expressing cells, Western blot of media and cells; assay type: cell-based, Chinese Hamster; settings: cells incubated with PI-PLC for 2 hours
# Procedure: In this example, following transient expression, as described in Example 2 above, the media and cells were harvested separately and analyzed for PH20 expression and solublility by Western blot analysis. Solubility of the C-terminus truncation mutants was determined by examining whether the expressed protein was present in the growth media or in the cells. […] Cells expressing these mutants were treated with phosphoinositol-phospholipase C (PI-PLC), which cleaves the GPI-anchor allowing the release of soluble protein into the media, and the presence of PH20 in the resulting media and cells was determined by Western blot analysis.
# Following expression of rHuPH20 in CHO—S cells for 72 hours, as described in Example 2A above, the media and cells were harvested separately. The cells were washed with serum-free media followed by the addition of 2 mL serum-free media per well. PI-PLC (0.5 units/well) was added to each well and the cells were incubated in the PI-PLC for 2 hours. The resultant media and cells were analyzed by Western blot analysis as described above.
# Two plates each of rHuPH20 expressing CHO—S cells, one for treatment with PI-PLC and one without treatment with PI-PLC, were prepared for each C-terminus mutant as described in Example 2B above. Following expression for 48 hours, for cells untreated with PI-PLC, the media and cells were harvested separately. The harvested media was spun down, concentrated to a volume of 10 mL, and buffer exchanged into PBS using an Amicon 30 kD MWCO concentrator. The cells were rinsed with cold PBS and scraped and resuspended in 1.2 mL PBS with protease inhibitor Set III (Cat No. 539134, Calbiochem). The resuspended cells were briefly sonicated to prepare whole-cell extract. For PI-PLC treatment of cells, following expression for 48 hours, the untreated media was harvested, as described above. The cells were rinsed once with fresh CD DG44 medium with Glutamax-1, and the media was replaced with 12 mL fresh detergent free CD DG44 medium supplemented with Glutamax-1 with 3.0 units PI-PLC per dish, and the cells were incubated for 2 hours at 37° C. with 5% CO2. After 2 hours, the PI-PLC media and cells were harvested separately, as described above. The resultant untreated media and cells, and PI-PLC treated media and cells, were analyzed by Western blot analysis as described above.
# [2] = system: CHO-S cells; experiment: Western blot analysis of PH20 expression in media and cells after transient expression; assay type: cell-based, Chinese Hamster; settings: media versus cells
# In short: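 CHO-S cells were transiently transfected with mutant PH20-HZ24 plasmids using GeneJuice and expressed for 48-72 h at 37 °C, 5% CO2. Media and cells were harvested separately, with PI-PLC treatment used to release GPI-anchored protein. Non-reduced samples were blotted with rabbit anti-PH20 (0.5 μg/mL), and a band near 66 kDa was scored as PH20.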
# [3] = Triton X-114 partition assay; assay type: physicochemical; settings: partition into aqueous phase of Triton X-114 at 37° C.
# Procedure: Solubility of a hyaluronidase can be determined by any method known to one of the skill in the art. One method for determining solubility is by detergent partitioning. […] For example, the solubility of the PH20 polypeptides described herein is assessed as described in Example 4. Membrane-anchored hyaluronidases, such as lipid-anchored hyaluronidases, including GPI-anchored hyaluronidases, will partition into the detergent-rich phase, but will partition into the detergent-poor or aqueous phase following treatment with Phospholipase C. Phospholipase C is an enzyme that cleaves the […] found in GPI-anchored proteins. Treatment with PLC will cause release of GPI-linked proteins from the outer cell membrane.
# The samples were heated to 37° C. for 3 minutes to induce phase separation and centrifuged for 3 min at 4000 g at room temperature. Aqueous and detergent phases were removed for SDS-PAGE analysis and Western blotting. Rabbit anti-PH20 IgG (0.5 μg/mL) was used as the primary antibody and HRP-conjugated goat anti-Rabbit IgG (0.1 ng/mL, Cat#DC03L, EMD) was used as the secondary antibody. Full length human PH20, which partitions strongly into the detergent phase, was used as a control.
# [4] = Microtiter hyaluronidase activity assay with biotinylated-hyaluronic acid; assay type: biochemical; settings: for pH 5.5 Activity / pH 7.4 Activity: 72 hour post transfection supernatant; for Hyaluronidase activity (in words): pH 7.4 and pH 5.5
pH 5.5 Activity ([4]; Table 6A),pH 7.4 Activity ([4]; Table 6A),pH 5.5 Activity ([4]; Table 6),pH 7.4 Activity ([4]; Table 6),Molecule,Expressed in Media Following Addition of PI-PLC [1],Expressed in Media [2],Soluble [3],Hyaluronidase activity (in words) [4]
0.162 Units/ml,0.365 Units/ml,–,–,"SPAM1-SILF: C-terminally truncated human PH20, precursor 500 aa (SEQ ID NO:48), mature 465 aa (SEQ ID NO:100) (protein, listed as Homo sapiens, HuPH20 precursor 1-500; Mature HuPH20 36-500) chain 1: MGVLKFKHIFFRSFVKSSGVSQIVFTFLLIPCCLTLNFRAPPVIPNVPFLWAWNAPSEFCLGKFDEPLDMSLFSFIGSPRINATGQGVTIFYVDRLGYYPYIDSITGVTVNGGIPQKISLQDHLDKAKKDITFYMPVDNLGMAVIDWEEWRPTWARNWKPKDVYKNRSIELVQQQNVQLSLTEATEKAKQEFEKAGKDFLVETIKLGKLLRPNHLWGYYLFPDCYNHHYKKPGYNGSCFNVEIKRNDDLSWLWNESTALYPSIYLNTQQSPVAATLYVRNRVREAIRVSKIPDAKSPLPVFAYTRIVFTDQVLKFLSQDELVYTFGETVALGASGIVIWGTLSIMRSMKSCLLLDNYMETILNPYIINVTLAAKMCSQVLCQEQGVCIRKNWNSSDYLHLNPDNFAIQLEKGGKFTVRGKPTLEDLEQFSEKFYCSCYSTLSCKEKADVKDTDAVDVCIADGVCIDAFLKPPMETEEPQIFYNASPSTLSATMFIVSILF chain 2: LNFRAPPVIPNVPFLWAWNAPSEFCLGKFDEPLDMSLFSFIGSPRINATGQGVTIFYVDRLGYYPYIDSITGVTVNGGIPQKISLQDHLDKAKKDITFYMPVDNLGMAVIDWEEWRPTWARNWKPKDVYKNRSIELVQQQNVQLSLTEATEKAKQEFEKAGKDFLVETIKLGKLLRPNHLWGYYLFPDCYNHHYKKPGYNGSCFNVEIKRNDDLSWLWNESTALYPSIYLNTQQSPVAATLYVRNRVREAIRVSKIPDAKSPLPVFAYTRIVFTDQVLKFLSQDELVYTFGETVALGASGIVIWGTLSIMRSMKSCLLLDNYMETILNPYIINVTLAAKMCSQVLCQEQGVCIRKNWNSSDYLHLNPDNFAIQLEKGGKFTVRGKPTLEDLEQFSEKFYCSCYSTLSCKEKADVKDTDAVDVCIADGVCIDAFLKPPMETEEPQIFYNASPSTLSATMFIVSILF",Initially in media,WEAK/YES,YES,little detectable activity
0.122 Units/ml,0.486 Units/ml,0.045 Units/ml,0.02025 Units/ml,"SPAM1-VSIL: C-terminally truncated human PH20, precursor 499 aa (SEQ ID NO:7), mature 464 aa (SEQ ID NO:59) (protein, listed as Homo sapiens, mature HuPH20 36-499) LNFRAPPVIPNVPFLWAWNAPSEFCLGKFDEPLDMSLFSFIGSPRINATGQGVTIFYVDRLGYYPYIDSITGVTVNGGIPQKISLQDHLDKAKKDITFYMPVDNLGMAVIDWEEWRPTWARNWKPKDVYKNRSIELVQQQNVQLSLTEATEKAKQEFEKAGKDFLVETIKLGKLLRPNHLWGYYLFPDCYNHHYKKPGYNGSCFNVEIKRNDDLSWLWNESTALYPSIYLNTQQSPVAATLYVRNRVREAIRVSKIPDAKSPLPVFAYTRIVFTDQVLKFLSQDELVYTFGETVALGASGIVIWGTLSIMRSMKSCLLLDNYMETILNPYIINVTLAAKMCSQVLCQEQGVCIRKNWNSSDYLHLNPDNFAIQLEKGGKFTVRGKPTLEDLEQFSEKFYCSCYSTLSCKEKADVKDTDAVDVCIADGVCIDAFLKPPMETEEPQIFYNASPSTLSATMFIVSIL",Initially in media,YES,YES,little detectable activity
0.162 Units/ml,0.365 Units/ml,0.216 Units/ml,0.1755 Units/ml,"SPAM1-FIVS: C-terminally truncated human PH20, precursor 497 aa (SEQ ID NO:8), mature 462 aa (SEQ ID NO:60) (protein, listed as Homo sapiens, HuPH20 precursor 1-497; esHuPH20 36-497) chain 1: MGVLKFKHIFFRSFVKSSGVSQIVFTFLLIPCCLTLNFRAPPVIPNVPFLWAWNAPSEFCLGKFDEPLDMSLFSFIGSPRINATGQGVTIFYVDRLGYYPYIDSITGVTVNGGIPQKISLQDHLDKAKKDITFYMPVDNLGMAVIDWEEWRPTWARNWKPKDVYKNRSIELVQQQNVQLSLTEATEKAKQEFEKAGKDFLVETIKLGKLLRPNHLWGYYLFPDCYNHHYKKPGYNGSCFNVEIKRNDDLSWLWNESTALYPSIYLNTQQSPVAATLYVRNRVREAIRVSKIPDAKSPLPVFAYTRIVFTDQVLKFLSQDELVYTFGETVALGASGIVIWGTLSIMRSMKSCLLLDNYMETILNPYIINVTLAAKMCSQVLCQEQGVCIRKNWNSSDYLHLNPDNFAIQLEKGGKFTVRGKPTLEDLEQFSEKFYCSCYSTLSCKEKADVKDTDAVDVCIADGVCIDAFLKPPMETEEPQIFYNASPSTLSATMFIVS chain 2: LNFRAPPVIPNVPFLWAWNAPSEFCLGKFDEPLDMSLFSFIGSPRINATGQGVTIFYVDRLGYYPYIDSITGVTVNGGIPQKISLQDHLDKAKKDITFYMPVDNLGMAVIDWEEWRPTWARNWKPKDVYKNRSIELVQQQNVQLSLTEATEKAKQEFEKAGKDFLVETIKLGKLLRPNHLWGYYLFPDCYNHHYKKPGYNGSCFNVEIKRNDDLSWLWNESTALYPSIYLNTQQSPVAATLYVRNRVREAIRVSKIPDAKSPLPVFAYTRIVFTDQVLKFLSQDELVYTFGETVALGASGIVIWGTLSIMRSMKSCLLLDNYMETILNPYIINVTLAAKMCSQVLCQEQGVCIRKNWNSSDYLHLNPDNFAIQLEKGGKFTVRGKPTLEDLEQFSEKFYCSCYSTLSCKEKADVKDTDAVDVCIADGVCIDAFLKPPMETEEPQIFYNASPSTLSATMFIVS",Initially in media,YES,YES,–
0.770 Units/ml,0.689 Units/ml,0.612 Units/ml,0.45 Units/ml,"SPAM1-TMFI: C-terminally truncated human PH20, precursor 495 aa (SEQ ID NO:9), mature 460 aa (SEQ ID NO:61) (protein, listed as Homo sapiens, HuPH20 precursor 1-495; esHuPH20 36-495) chain 1: MGVLKFKHIFFRSFVKSSGVSQIVFTFLLIPCCLTLNFRAPPVIPNVPFLWAWNAPSEFCLGKFDEPLDMSLFSFIGSPRINATGQGVTIFYVDRLGYYPYIDSITGVTVNGGIPQKISLQDHLDKAKKDITFYMPVDNLGMAVIDWEEWRPTWARNWKPKDVYKNRSIELVQQQNVQLSLTEATEKAKQEFEKAGKDFLVETIKLGKLLRPNHLWGYYLFPDCYNHHYKKPGYNGSCFNVEIKRNDDLSWLWNESTALYPSIYLNTQQSPVAATLYVRNRVREAIRVSKIPDAKSPLPVFAYTRIVFTDQVLKFLSQDELVYTFGETVALGASGIVIWGTLSIMRSMKSCLLLDNYMETILNPYIINVTLAAKMCSQVLCQEQGVCIRKNWNSSDYLHLNPDNFAIQLEKGGKFTVRGKPTLEDLEQFSEKFYCSCYSTLSCKEKADVKDTDAVDVCIADGVCIDAFLKPPMETEEPQIFYNASPSTLSATMFI chain 2: LNFRAPPVIPNVPFLWAWNAPSEFCLGKFDEPLDMSLFSFIGSPRINATGQGVTIFYVDRLGYYPYIDSITGVTVNGGIPQKISLQDHLDKAKKDITFYMPVDNLGMAVIDWEEWRPTWARNWKPKDVYKNRSIELVQQQNVQLSLTEATEKAKQEFEKAGKDFLVETIKLGKLLRPNHLWGYYLFPDCYNHHYKKPGYNGSCFNVEIKRNDDLSWLWNESTALYPSIYLNTQQSPVAATLYVRNRVREAIRVSKIPDAKSPLPVFAYTRIVFTDQVLKFLSQDELVYTFGETVALGASGIVIWGTLSIMRSMKSCLLLDNYMETILNPYIINVTLAAKMCSQVLCQEQGVCIRKNWNSSDYLHLNPDNFAIQLEKGGKFTVRGKPTLEDLEQFSEKFYCSCYSTLSCKEKADVKDTDAVDVCIADGVCIDAFLKPPMETEEPQIFYNASPSTLSATMFI",Initially in media,YES,YES,–
